According to article PMC11584650, “An inhibitory segment within G-patch activators tunes Prp43-ATPase activity during ribosome assembly” (Nature Communications, 2024):

Substrate: Nc1ncnc2c1ncn2[C@@H]1O[C@H](COP(=O)(O)OP(=O)(O)OP(=O)(O)O)[C@@H](O)[C@H]1O
Assay: pyruvate kinase/lactate dehydrogenase coupled NADH assay, Michaelis-Menten fit
Type: biochemical, Saccharomyces cerevisiae
Conditions: no RNA, 20 mM MgCl2, 50 mM Hepes pH 7.5, 200 mM KCl, room temperature, ATP up to 2.5 mM
From the text: pyruvate kinase/lactate dehydrogenase coupled NADH assay, Michaelis-Menten fit on Prp43 | We obtained kinetic parameters for the ATPase activities of Prp43, Prp43:Tma23^M and Ppr43:Pxr1^M complexes

B1: Prp43 (Saccharomyces cerevisiae S288C) (protein)
chain: MGSKRRFSSEHPDPVETSIPEQAAEIAEELSKQHPLPSEEPLVHHDAGEFKGLQRHHTSAEEAQKLEDGKINPFTGREFTPKYVDILKIRRELPVHAQRDEFLKLYQNNQIMVFVGETGSGKTTQIPQFVLFDEMPHLENTQVACTQPRRVAAMSVAQRVAEEMDVKLGEEVGYSIRFENKTSNKTILKYMTDGMLLREAMEDHDLSRYSCIILDEAHERTLATDILMGLLKQVVKRRPDLKIIIMSATLDAEKFQRYFNDAPLLAVPGRTYPVELYYTPEFQRDYLDSAIRTVLQIHATEEAGDILLFLTGEDEIEDAVRKISLEGDQLVREEGCGPLSVYPLYGSLPPHQQQRIFEPAPESHNGRPGRKVVISTNIAETSLTIDGIVYVVDPGFSKQKVYNPRIRVESLLVSPISKASAQQRAGRAGRTRPGKCFRLYTEEAFQKELIEQSYPEILRSNLSSTVLELKKLGIDDLVHFDFMDPPAPETMMRALEELNYLACLDDEGNLTPLGRLASQFPLDPMLAVMLIGSFEFQCSQEILTIVAMLSVPNVFIRPTKDKKRADDAKNIFAHPDGDHITLLNVYHAFKSDEAYEYGIHKWCRDHYLNYRSLSAADNIRSQLERLMNRYNLELNTTDYESPKYFDNIRKALASGFFMQVAKKRSGAKGYITVKDNQDVLIHPSTVLGHDAEWVIYNEFVLTSKNYIRTVTSVRPEWLIEIAPAYYDLSNFQKGDVKLSLERIKEKVDRLNELKQGKNKKKSKHSKK
notes: full-length His6-tagged Prp43, expressed in E. coli BL21(DE3)*, Ni-NTA and size exclusion
For B1, the Km was 19.04 ± 7.11 µM and the kcat was 0.0318 ± 0.0005 s⁻¹.
